Measurements published in paper PMC9455167.

Key:
[1] = biological target: Recombinant human Src kinase (Abcam 79635) (human) (UniProt P12931); test: MST; RED-tris-NTA-labelled His-tagged Src kinase constant at 50 nM; unlabelled Na,K-ATPase 0.2 nM to 16 µM; 50 mM Tris/HCl pH 7.4, 150 mM NaCl, 10 mM MgCl2; Monolith NT.115, LED 100%, MST power 40%
[2] = biological target: Recombinant human Src kinase (Abcam 79635) (human) (UniProt P12931)

“Na,K-ATPase purified from duck salt glands (complex)” was tested, and the Kd [1] was 210 nM and the reduction of Src autophosphorylation at Tyr416 in vitro (purified Na,K-ATPase, Src kinase, ATP; Western blot p-Src/Src) [2] was 70%.
